The target of assay [1] is human OX40 on cells (CHO-hOX40, 293HEK-hOX40, Jurkat-hOX40, activated primary CD4+ T cells) (human) (UniProt P43489). Kind of assay: flow cytometry, CHO-hOX40, 100 nM. (In flow cytometry, cells or beads pass a laser one at a time.)
The target is the same in assay [2]. Kind of assay: flow cytometry, 293HEK-hOX40, 200 nM.
Assay [3] has the same target. Kind of assay: flow cytometry, CHO-hOX40, 0.1953125 nM.
The target is the same in assay [4]. Kind of assay: flow cytometry, CHO-hOX40, 12.5 nM.
The target is the same in assay [5]. Kind of assay: flow cytometry, CHO-hOX40.
For assay [6] the target is unchanged. Kind of assay: flow cytometry, CHO-hOX40, 0.048828125 nM.
For assay [7] the target is unchanged. Kind of assay: flow cytometry, CHO-hOX40, 0.390625 nM.
Assay [8] shares this target. Kind of assay: flow cytometry, 293HEK-hOX40, 8 nM.
Assay [9] has the same target. Kind of assay: cell-based or functional assay.
Assay [10] shares this target. Kind of assay: flow cytometry, CHO-hOX40, 100 nM. This is another data set of the same source.
The target is the same in assay [11]. Kind of assay: flow cytometry, MFI on CHO-hOX40 over wild-type CHO.
The target is the same in assay [12]. Kind of assay: flow cytometry, CHO-hOX40, 3.125 nM.
Assay [13] has the same target. Kind of assay: flow cytometry, 293HEK-hOX40, 1.6 nM.
Assay [14] has the same target. Kind of assay: flow cytometry, CHO-hOX40, 0.024414063 nM.
Assay [15] addresses human OX40_Fc (R&D Systems) (human) (UniProt P43489). Kind of assay: BLI, IgG1 on tip, hOX40-Fc 50 nM, avid. In general terms: In BLI a coated tip is dipped into the sample, and binding shifts an interference pattern.
For assay [16], the target named is human OX40 on cells (CHO-hOX40, 293HEK-hOX40, Jurkat-hOX40, activated primary CD4+ T cells) (human) (UniProt P43489). Kind of assay: flow cytometry, 293HEK-hOX40, 40 nM.
The target is the same in assay [17]. Kind of assay: flow cytometry, CHO-hOX40, 6.25 nM.
Assay [18] has the same target. Kind of assay: flow cytometry, activated CD4+ T cells, donor 2, 100 nM.
The target is the same in assay [19]. Kind of assay: flow cytometry, CHO-hOX40, 0.78125 nM.
The target is the same in assay [20]. Kind of assay: flow cytometry, CHO-hOX40, 50 nM.
For assay [21] the target is unchanged. Kind of assay: flow cytometry, activated CD4+ T cells, donor 1, 100 nM.
Assay [22] has the same target. Kind of assay: flow cytometry, CHO-hOX40, 0.09765625 nM.
Assay [23] has the same target. Kind of assay: flow cytometry, CHO-hOX40, 25 nM.
Assay [24] concerns the target cyno OX40_Fc (Acro Biosystems) (cyno). Kind of assay: BLI, IgG1 on tip, cyno OX40-Fc 100 nM, avid.
The target of assay [25] is human OX40 on cells (CHO-hOX40, 293HEK-hOX40, Jurkat-hOX40, activated primary CD4+ T cells) (human) (UniProt P43489). Kind of assay: flow cytometry, MFI on CHO-hOX40 over wild-type CHO. This is another data set of the same source.
In assay [26] the target is human OX40_Fc (R&D Systems) (human) (UniProt P43489). Kind of assay: BLI, IgG1 on tip, hOX40-Fc 50 nM, avid. The source holds these as a separate data set.
For assay [27], the target named is cyno OX40_Fc (Acro Biosystems) (cyno). Kind of assay: BLI, IgG1 on tip, cyno OX40-Fc 100 nM, avid. This is another data set of the same source.
Assay [28] deals with human OX40 on cells (CHO-hOX40, 293HEK-hOX40, Jurkat-hOX40, activated primary CD4+ T cells) (human) (UniProt P43489). Kind of assay: flow cytometry, CHO-hOX40, […].
Assay [29] shares this target. Kind of assay: flow cytometry, CHO-hOX40, 100 nM blocker, competitor OX40L-hFc-fluorescein.
The target is the same in assay [30]. Kind of assay: flow cytometry, CHO-hOX40, 200 nM.

Where two headings read alike, the source gives them in different places.

Chain of human OX40 on cells (CHO-hOX40, 293HEK-hOX40, Jurkat-hOX40, activated primary CD4+ T cells) (human) (P43489 29-277): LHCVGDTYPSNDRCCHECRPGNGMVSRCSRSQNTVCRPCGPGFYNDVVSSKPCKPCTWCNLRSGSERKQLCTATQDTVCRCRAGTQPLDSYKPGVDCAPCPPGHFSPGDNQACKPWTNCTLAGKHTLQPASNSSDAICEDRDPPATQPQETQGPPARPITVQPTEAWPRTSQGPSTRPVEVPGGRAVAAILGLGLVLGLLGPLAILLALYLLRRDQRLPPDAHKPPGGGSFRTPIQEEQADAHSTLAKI
Chain of human OX40_Fc (R&D Systems) (human) (P43489 29-216): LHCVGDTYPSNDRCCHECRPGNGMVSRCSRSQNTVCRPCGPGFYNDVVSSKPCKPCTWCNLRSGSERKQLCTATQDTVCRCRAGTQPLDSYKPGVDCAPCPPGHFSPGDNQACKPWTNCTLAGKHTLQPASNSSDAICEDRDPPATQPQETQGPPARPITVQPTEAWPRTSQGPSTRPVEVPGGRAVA

B1: Hu106-222, humanized IgG1 OX40 antibody (antibody, from another filing, V domains shown)
VH: QVQLVQSGSELKKPGASVKVSCKASGYTFTDYSMHWVRQAPGQGLKWMGWINTETGEPTYADDFKGRFVFSLDTSVSTAYLQISSLKAEDTAVYYCANPYYDYVSYYAMDYWGQGTTVTVSS
VL: DIQMTQSPSSLSASVGDRVTITCKASQDVSTAVAWYQQKPGKAPKLLIYSASYLYTGVPSRFSGSGSGTDFTFTISSLQPEDIATYYCQQHYSTPRTFGQGTKLEIK
By EC50 is commonly meant the concentration giving half of the maximal effect. Lower therefore signals greater potency. The Kd is the concentration at which binding is half-saturated. A high value points to lower affinity. With B1, the values for the CHO-OX40 binding intensity (MFI) in [1] and in assay [10] were 183000 MFI and 164000 MFI, respectively. In addition, the MFI came to 1.79e+06 MFI in [2]; 181000 MFI in assay [3]; 2.18e+06 MFI in assay [4]; 49800 MFI in assay [6]; 474000 MFI in assay [7]; 1.74e+06 MFI in assay [8]. The MFI in [10] was 2.5e+06 MFI; in assay [12] it was 1.77e+06 MFI; in [13], 650000 MFI; in assay [14], 26700 MFI; in assay [16] it was 1.8e+06 MFI; in [17] it was 2.02e+06 MFI. The MFI in [18] is 136000 MFI; in assay [19] it was 600000 MFI; in [20], 2.34e+06 MFI; in assay [21], 115000 MFI; in [22] it was 77600 MFI; in [23], 2.24e+06 MFI. For the same molecule, the MFI amounted to 1.25e+06 MFI in assay [28] and 2.64e+06 MFI in assay [30]. The EC50 in assay [5] worked out at 1.94 nM. Also, the NFkB-Luc fold change in Jurkat stimulated by PHA+ anti-CD28 (fold over IgG4 control) in assay [9] amounted to 1.93. Moreover, the NFkB-Luc fold change in Jurkat stimulated by anti-CD3+ anti-CD28 (fold over IgG4 control) in assay [9] is 1.77. The Fold difference in assay [11] came to 2630 fold; in assay [25] it was 1700 fold. Also, the Kd in assay [15] is 0.25 nM; in assay [24], 4.96 nM; in [26], 0.475 nM; in [27], 5.17 nM. The MFI of OX40L signal on CHO-OX40 cells in assay [29] was 25800 MFI.

B2: IgG2 control (antibody, V domains shown)
VH: QLQLQKSGPGLVKPSETLSLTCTVSGFTFSNYAMGWIRQPPGKGLEWIGAISGSGGSTYYADSVKGRVTISVDTSKNQFSLKLSSVTAADTAVYYCARGGPGWYAADVWGQGTLVTVSS
VL: EIVLTQSPATLSLSPGERATLSCRASQSISSYLNWYQQKPGQAPRLLIYAASSLQSGIPARFSGSGSGTDFTLTISSLEPEDFAVYYCQQADLPAFAFGGGTKVEIKR
As to B2, the MFI in assay [3] was determined as 1680 MFI; in assay [4] it was 11900 MFI; in assay [6] it was 1560 MFI; in [7], 1890 MFI; in assay [10], 93000 MFI; in assay [12], 4150 MFI. In addition, the MFI in [14] was found to be 1510 MFI; in assay [17] it was 6400 MFI; in assay [19], 2250 MFI; in assay [20] it was 44100 MFI; in assay [22] it was 1590 MFI; in [23], 22100 MFI. Moreover, the MFI in assay [28] amounted to 2900 MFI; in [30] it was 216000 MFI.

The record behind these values is patent US20200140562A1.
